# Laboratory results: paper PMC2871789, “Characterization of the Interaction and Cross-Regulation of Three Mycobacterium tuberculosis RelBE Modules” (PLoS ONE, 2010)
# T1: 6xHis-RelF (Rv2865), purified (M. tuberculosis, UniProt O33347 1-93)
# T1 construct: also called his-tagged RelF; pET-2865; not shown: His6, N-terminal, kept
# T1 sequence: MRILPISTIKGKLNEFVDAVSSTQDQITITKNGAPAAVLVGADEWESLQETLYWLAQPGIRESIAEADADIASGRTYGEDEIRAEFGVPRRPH
# T2: GST-RelE (Rv1246c), purified (M. tuberculosis, UniProt O50461 1-97)
# T2 construct: the methods state the opposite tagging; also called GST-tagged RelE; pGEX-1246c
# T2 sequence: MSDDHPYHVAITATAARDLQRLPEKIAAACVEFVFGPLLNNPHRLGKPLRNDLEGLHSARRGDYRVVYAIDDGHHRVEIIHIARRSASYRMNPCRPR
# Columns and labels:
# [1] = target: T1, 6xHis-RelF (Rv2865), purified; assay: pull-down; settings: both partners purified
# [2] = target: T2, GST-RelE (Rv1246c), purified; assay: pull-down; settings: both partners purified
binder,measurement,setting,value
"GST-RelG (Rv2866), purified (natural protein, also called GST-tagged RelG; pGEX-2866) MPYTVRFTTTARRDLHKLPPRILAAVVEFAFGDLSREPLRVGKPLRRELAGTFSARRGTYRLLYRIDDEHTTVVILRVDHRADIYRR",binding result,[1],binds
"6xHis-RelB (Rv1247c), purified (natural protein, also called his-tagged RelB; histidine-tagged RelB; not shown: His6, N-terminal, kept) MAVVPLGEVRNRLSEYVAEVELTHERITITRHGHPAAVLISADDLASIEETLEVLRTPGASEAIREGLADVAAGRFVSNDEIRNRYTAR",binding result,[2],binds
